# Assay results as given in US20250171562A1 (ALK ABELL, published 2025).
# Target: T1, recombinant human IgE (human, UniProt P01854-1 1-428)
# T1 construct: made in-house (ALK); preloaded on immobilised FcεRIα in the displacement ELISA
# Assay: IgE-FcεRIα displacement ELISA
# In short: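 sdAbs at pM–μM were incubated 1 h on preformed complexes of 13 ng/ml recombinant human IgE with avi-tag-biotinylated human FcεRIα captured on streptavidin.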
# T1 sequence (P01854 other isoform, or with tags, fused parts or gaps): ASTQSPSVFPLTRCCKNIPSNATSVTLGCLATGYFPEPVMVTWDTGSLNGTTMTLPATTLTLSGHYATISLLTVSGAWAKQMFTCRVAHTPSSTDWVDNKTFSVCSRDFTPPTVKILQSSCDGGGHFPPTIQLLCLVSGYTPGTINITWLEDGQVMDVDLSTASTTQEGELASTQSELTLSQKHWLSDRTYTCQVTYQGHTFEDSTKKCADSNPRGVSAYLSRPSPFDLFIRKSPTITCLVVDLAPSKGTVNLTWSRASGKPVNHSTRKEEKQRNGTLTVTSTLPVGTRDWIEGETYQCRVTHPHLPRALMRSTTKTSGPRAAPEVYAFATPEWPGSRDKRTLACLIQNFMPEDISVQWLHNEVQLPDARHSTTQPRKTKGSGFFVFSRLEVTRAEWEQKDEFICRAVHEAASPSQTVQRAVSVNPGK
Binder,Max effect,EC50
CIgG4D1A1(RS) (Fc fusion) chain 1: GPPCPPCPAPEFLGGPSVFLFPPKPKDTLMISRTPEVTCVVVDVSQEDPEVQFNWYVDGVEVHNAKTKPREEQFNSTYRVVSVLTVLHQDWLNGKEYKCKVSNKGLPSSIEKTISKAKGQPREPQVYTLPPCQEEMTKNQVSLWCLVKGFYPSDIAVEWESNGQPENNYKTTPPVLDSDGSFFLYSRLTVDKSRWQEGNVFSCSVMHEALHNHYTQKSLSLSLGKRSDVQLQESGGGLVQAGGSLRLSCAASGLTFSRCDMGWFRQAPGKEREFVARISANGASTHYADFVKGRFTISRDNAKNTVYLQMNYLKPEDTAVYICAAARVPVTWQLYDYWGQGTQVTVS chain 2: GPPCPPCPAPEFLGGPSVFLFPPKPKDTLMISRTPEVTCVVVDVSQEDPEVQFNWYVDGVEVHNAKTKPREEQFNSTYRVVSVLTVLHQDWLNGKEYKCKVSNKGLPSSIEKTISKAKGQPREPQVCTLPPSQEEMTKNQVSLSCAVKGFYPSDIAVEWESNGQPENNYKTTPPVLDSDGSFFLVSRLTVDKSRWQEGNVFSCSVMHEALHNHYTQKSLSLSLGKRSEVQLLESGGGLVQPGGSLRLSCAASGFTFGNYDMAWVRQAPGKRPEWVSSIDTGGDITHYADSVKGRFTISRDNAKNTLYLQMNSLRPEDTAVYWCATDEEYALGPNEFDYYGQGTLVTVSS,30%,–
CIgG4D1A1(G4S)1 (Fc fusion) chain 1: GPPCPPCPAPEFLGGPSVFLFPPKPKDTLMISRTPEVTCVVVDVSQEDPEVQFNWYVDGVEVHNAKTKPREEQFNSTYRVVSVLTVLHQDWLNGKEYKCKVSNKGLPSSIEKTISKAKGQPREPQVYTLPPCQEEMTKNQVSLWCLVKGFYPSDIAVEWESNGQPENNYKTTPPVLDSDGSFFLYSRLTVDKSRWQEGNVFSCSVMHEALHNHYTQKSLSLSLGKGGGGSDVQLQESGGGLVQAGGSLRLSCAASGLTFSRCDMGWFRQAPGKEREFVARISANGASTHYADFVKGRFTISRDNAKNTVYLQMNYLKPEDTAVYICAAARVPVTWQLYDYWGQGTQVTVS chain 2: GPPCPPCPAPEFLGGPSVFLFPPKPKDTLMISRTPEVTCVVVDVSQEDPEVQFNWYVDGVEVHNAKTKPREEQFNSTYRVVSVLTVLHQDWLNGKEYKCKVSNKGLPSSIEKTISKAKGQPREPQVCTLPPSQEEMTKNQVSLSCAVKGFYPSDIAVEWESNGQPENNYKTTPPVLDSDGSFFLVSRLTVDKSRWQEGNVFSCSVMHEALHNHYTQKSLSLSLGKGGGGSEVQLLESGGGLVQPGGSLRLSCAASGFTFGNYDMAWVRQAPGKRPEWVSSIDTGGDITHYADSVKGRFTISRDNAKNTLYLQMNSLRPEDTAVYWCATDEEYALGPNEFDYYGQGTLVTVSS,90%,52 nM
CIgG4D1A1(G4S)3 (Fc fusion) chain 1: GPPCPPCPAPEFLGGPSVFLFPPKPKDTLMISRTPEVTCVVVDVSQEDPEVQFNWYVDGVEVHNAKTKPREEQFNSTYRVVSVLTVLHQDWLNGKEYKCKVSNKGLPSSIEKTISKAKGQPREPQVYTLPPCQEEMTKNQVSLWCLVKGFYPSDIAVEWESNGQPENNYKTTPPVLDSDGSFFLYSRLTVDKSRWQEGNVFSCSVMHEALHNHYTQKSLSLSLGKGGGGSGGGGSGGGGSDVQLQESGGGLVQAGGSLRLSCAASGLTFSRCDMGWFRQAPGKEREFVARISANGASTHYADFVKGRFTISRDNAKNTVYLQMNYLKPEDTAVYICAAARVPVTWQLYDYWGQGTQVTVS chain 2: GPPCPPCPAPEFLGGPSVFLFPPKPKDTLMISRTPEVTCVVVDVSQEDPEVQFNWYVDGVEVHNAKTKPREEQFNSTYRVVSVLTVLHQDWLNGKEYKCKVSNKGLPSSIEKTISKAKGQPREPQVCTLPPSQEEMTKNQVSLSCAVKGFYPSDIAVEWESNGQPENNYKTTPPVLDSDGSFFLVSRLTVDKSRWQEGNVFSCSVMHEALHNHYTQKSLSLSLGKGGGGSGGGGSGGGGSEVQLLESGGGLVQPGGSLRLSCAASGFTFGNYDMAWVRQAPGKRPEWVSSIDTGGDITHYADSVKGRFTISRDNAKNTLYLQMNSLRPEDTAVYWCATDEEYALGPNEFDYYGQGTLVTVSS,> 95%,14 nM
CIgG4D2A1(G4S)3 (Fc fusion) chain 1: GPPCPPCPAPEFLGGPSVFLFPPKPKDTLMISRTPEVTCVVVDVSQEDPEVQFNWYVDGVEVHNAKTKPREEQFNSTYRVVSVLTVLHQDWLNGKEYKCKVSNKGLPSSIEKTISKAKGQPREPQVYTLPPCQEEMTKNQVSLWCLVKGFYPSDIAVEWESNGQPENNYKTTPPVLDSDGSFFLYSRLTVDKSRWQEGNVFSCSVMHEALHNHYTQKSLSLSLGKGGGGSGGGGSGGGGSDVQLQESGGGLVEAGGSLRLSCVASGRTFSGWSMGWFRQAPGKEREFVAAISWVGSWIGGTVYSNSVKGRFTISRDNARTTVYLQMNSLKPEDTAVYFCAAANSETPRIFASEYDYWGQGTQVTVS chain 2: GPPCPPCPAPEFLGGPSVFLFPPKPKDTLMISRTPEVTCVVVDVSQEDPEVQFNWYVDGVEVHNAKTKPREEQFNSTYRVVSVLTVLHQDWLNGKEYKCKVSNKGLPSSIEKTISKAKGQPREPQVCTLPPSQEEMTKNQVSLSCAVKGFYPSDIAVEWESNGQPENNYKTTPPVLDSDGSFFLVSRLTVDKSRWQEGNVFSCSVMHEALHNHYTQKSLSLSLGKGGGGSGGGGSGGGGSEVQLLESGGGLVQPGGSLRLSCAASGFTFGNYDMAWVRQAPGKRPEWVSSIDTGGDITHYADSVKGRFTISRDNAKNTLYLQMNSLRPEDTAVYWCATDEEYALGPNEFDYYGQGTLVTVSS,> 95%,4.8 nM
CIgG4D2A1(G4S)2 (Fc fusion) chain 1: GPPCPPCPAPEFLGGPSVFLFPPKPKDTLMISRTPEVTCVVVDVSQEDPEVQFNWYVDGVEVHNAKTKPREEQFNSTYRVVSVLTVLHQDWLNGKEYKCKVSNKGLPSSIEKTISKAKGQPREPQVYTLPPCQEEMTKNQVSLWCLVKGFYPSDIAVEWESNGQPENNYKTTPPVLDSDGSFFLYSRLTVDKSRWQEGNVFSCSVMHEALHNHYTQKSLSLSLGKGGGGSGGGGSDVQLQESGGGLVEAGGSLRLSCVASGRTFSGWSMGWFRQAPGKEREFVAAISWVGSWIGGTVYSNSVKGRFTISRDNARTTVYLQMNSLKPEDTAVYFCAAANSETPRIFASEYDYWGQGTQVTVS chain 2: GPPCPPCPAPEFLGGPSVFLFPPKPKDTLMISRTPEVTCVVVDVSQEDPEVQFNWYVDGVEVHNAKTKPREEQFNSTYRVVSVLTVLHQDWLNGKEYKCKVSNKGLPSSIEKTISKAKGQPREPQVCTLPPSQEEMTKNQVSLSCAVKGFYPSDIAVEWESNGQPENNYKTTPPVLDSDGSFFLVSRLTVDKSRWQEGNVFSCSVMHEALHNHYTQKSLSLSLGKGGGGSGGGGSEVQLLESGGGLVQPGGSLRLSCAASGFTFGNYDMAWVRQAPGKRPEWVSSIDTGGDITHYADSVKGRFTISRDNAKNTLYLQMNSLRPEDTAVYWCATDEEYALGPNEFDYYGQGTLVTVSS,> 95%,7 nM

# Other lines, results leading:
Max effect,EC50,Binder
35%,–,CIgG4D2A1(RS) (Fc fusion) chain 1: GPPCPPCPAPEFLGGPSVFLFPPKPKDTLMISRTPEVTCVVVDVSQEDPEVQFNWYVDGVEVHNAKTKPREEQFNSTYRVVSVLTVLHQDWLNGKEYKCKVSNKGLPSSIEKTISKAKGQPREPQVYTLPPCQEEMTKNQVSLWCLVKGFYPSDIAVEWESNGQPENNYKTTPPVLDSDGSFFLYSRLTVDKSRWQEGNVFSCSVMHEALHNHYTQKSLSLSLGKRSDVQLQESGGGLVEAGGSLRLSCVASGRTFSGWSMGWFRQAPGKEREFVAAISWVGSWIGGTVYSNSVKGRFTISRDNARTTVYLQMNSLKPEDTAVYFCAAANSETPRIFASEYDYWGQGTQVTVS chain 2: GPPCPPCPAPEFLGGPSVFLFPPKPKDTLMISRTPEVTCVVVDVSQEDPEVQFNWYVDGVEVHNAKTKPREEQFNSTYRVVSVLTVLHQDWLNGKEYKCKVSNKGLPSSIEKTISKAKGQPREPQVCTLPPSQEEMTKNQVSLSCAVKGFYPSDIAVEWESNGQPENNYKTTPPVLDSDGSFFLVSRLTVDKSRWQEGNVFSCSVMHEALHNHYTQKSLSLSLGKRSEVQLLESGGGLVQPGGSLRLSCAASGFTFGNYDMAWVRQAPGKRPEWVSSIDTGGDITHYADSVKGRFTISRDNAKNTLYLQMNSLRPEDTAVYWCATDEEYALGPNEFDYYGQGTLVTVSS
> 95%,25 nM,CIgG4D2A1(G4S)1 (Fc fusion) chain 1: GPPCPPCPAPEFLGGPSVFLFPPKPKDTLMISRTPEVTCVVVDVSQEDPEVQFNWYVDGVEVHNAKTKPREEQFNSTYRVVSVLTVLHQDWLNGKEYKCKVSNKGLPSSIEKTISKAKGQPREPQVYTLPPCQEEMTKNQVSLWCLVKGFYPSDIAVEWESNGQPENNYKTTPPVLDSDGSFFLYSRLTVDKSRWQEGNVFSCSVMHEALHNHYTQKSLSLSLGKGGGGSDVQLQESGGGLVEAGGSLRLSCVASGRTFSGWSMGWFRQAPGKEREFVAAISWVGSWIGGTVYSNSVKGRFTISRDNARTTVYLQMNSLKPEDTAVYFCAAANSETPRIFASEYDYWGQGTQVTVS chain 2: GPPCPPCPAPEFLGGPSVFLFPPKPKDTLMISRTPEVTCVVVDVSQEDPEVQFNWYVDGVEVHNAKTKPREEQFNSTYRVVSVLTVLHQDWLNGKEYKCKVSNKGLPSSIEKTISKAKGQPREPQVCTLPPSQEEMTKNQVSLSCAVKGFYPSDIAVEWESNGQPENNYKTTPPVLDSDGSFFLVSRLTVDKSRWQEGNVFSCSVMHEALHNHYTQKSLSLSLGKGGGGSEVQLLESGGGLVQPGGSLRLSCAASGFTFGNYDMAWVRQAPGKRPEWVSSIDTGGDITHYADSVKGRFTISRDNAKNTLYLQMNSLRPEDTAVYWCATDEEYALGPNEFDYYGQGTLVTVSS
> 95%,30 nM,CIgG4D1A1(G4S)2 (Fc fusion) chain 1: GPPCPPCPAPEFLGGPSVFLFPPKPKDTLMISRTPEVTCVVVDVSQEDPEVQFNWYVDGVEVHNAKTKPREEQFNSTYRVVSVLTVLHQDWLNGKEYKCKVSNKGLPSSIEKTISKAKGQPREPQVYTLPPCQEEMTKNQVSLWCLVKGFYPSDIAVEWESNGQPENNYKTTPPVLDSDGSFFLYSRLTVDKSRWQEGNVFSCSVMHEALHNHYTQKSLSLSLGKGGGGSGGGGSDVQLQESGGGLVQAGGSLRLSCAASGLTFSRCDMGWFRQAPGKEREFVARISANGASTHYADFVKGRFTISRDNAKNTVYLQMNYLKPEDTAVYICAAARVPVTWQLYDYWGQGTQVTVS chain 2: GPPCPPCPAPEFLGGPSVFLFPPKPKDTLMISRTPEVTCVVVDVSQEDPEVQFNWYVDGVEVHNAKTKPREEQFNSTYRVVSVLTVLHQDWLNGKEYKCKVSNKGLPSSIEKTISKAKGQPREPQVCTLPPSQEEMTKNQVSLSCAVKGFYPSDIAVEWESNGQPENNYKTTPPVLDSDGSFFLVSRLTVDKSRWQEGNVFSCSVMHEALHNHYTQKSLSLSLGKGGGGSGGGGSEVQLLESGGGLVQPGGSLRLSCAASGFTFGNYDMAWVRQAPGKRPEWVSSIDTGGDITHYADSVKGRFTISRDNAKNTLYLQMNSLRPEDTAVYWCATDEEYALGPNEFDYYGQGTLVTVSS
